# T1: Abl SH2 (UniProt P00519 127-217, limits assumed)
# T1 construct: domain: SH2; Target protein of the library selection
# T1 sequence (looked up): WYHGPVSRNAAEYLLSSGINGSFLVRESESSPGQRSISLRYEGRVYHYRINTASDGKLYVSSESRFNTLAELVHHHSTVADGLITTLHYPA
# B1: SUMOMbS08 (designed binder)
# therMonobody (FN3 domain): SSSSVPQIASIASGPETITVKWYDTNASYYYIYYWSLQYYREAVKIEVGNVTSYTIKHLKPGVTYYIQIVPFEEFGFGWYSGDPSDIISATPSSS
# notes: side-and-loop library clone selected on ySUMO
# B2: AblSH2MbL04 (designed binder)
# therMonobody (FN3 domain): SSSSVPQIASIASGPETITVKWYYYSIDVYYYITYWSSSSQKVTINVGPQTSYTIKHLKPGVTYYIQIVPYSFYSDSDYGYYPSDIISATPSSS
# notes: loop-only library clone selected on Abl SH2
# B3: MBPMbS12 (designed binder)
# therMonobody (FN3 domain): SSSSVPQIASIASGPETITVKWYDTNASYYYISYWSGQSETVAIEVGNVTSYTIKHLKPGVTYYIQIVPYYPGYYPVHYVPSDIISATPSSS
# notes: side-and-loop library clone selected on MBP
# B4: AblSH2MbS02 (designed binder)
# therMonobody (FN3 domain): SSSSVPQIASIASGPETITVKWYDTNASFYYIYYWSTYPVTEEVEIKVGNVTSYTIKHLKPGVTYYIQIVPQYWYLGAGYPSDIISATPSSS
# notes: side-and-loop library clone selected on Abl SH2
# B5: AblSH2MbS07 (designed binder)
# therMonobody (FN3 domain): SSSSVPQIASIASGPETITVKWYDTNASYYYIYYWSSYPVTEEVEIKVGNVTSYTIKHLKPGVTYYIQIVPGYYSYPYYLSPSDIISATPSSS
# notes: as for B4
# B6: MBPMbL08 (designed binder)
# therMonobody (FN3 domain): SSSSVPQIASIASGPETITVKWYWSSYYWSPFYYYITYWSSSSQKVTINVGNVTSYTIKHLKPGVTYYIQIVPYWYQYFPRYGYPSDIISATPSSS
# notes: loop-only library clone selected on MBP
# B7: MBPMbS09 (designed binder)
# therMonobody (FN3 domain): SSSSVPQIASIASGPETITVKWYDTNASYYYISYWSYSTATVAIAVGNVTSYTIKHLKPGVTYYIQIVPYYGYRPYPSYGYPSDIISATPSSS
# notes: as for B3
# B8: SUMOMbS20 (designed binder)
# therMonobody (FN3 domain): SSSSVPQIASIAVGPETITVKWYDTNASYYYIYYWSKHPKKVKIEVGNVTSYTIKHLKPGVTYYIQIVPFISYYDLYYSGDPSDIISATPSSS
# notes: as for B1
# B9: MBPMbS01 (designed binder)
# therMonobody (FN3 domain): SSSSVPQIASIASGPETITVKWYDTNASYYYISYWSADYDSEAVAIAVGNVTSYTIKHLKPGVTYYIQIVPYKANSYYPGYGYPSDIISATPSSS
# notes: as for B3
# B10: MBPMbL17 (designed binder)
# therMonobody (FN3 domain): SSSSVPQIASIAVGPETITVKWYRIPHAYYYYITYWSSSSQKVTINVGNVTSYTIKHLKPGVTYYIQIVPYYPSPWYLSYGYPSDIISATPSSS
# notes: as for B6
# B11: SUMOMbL14 (designed binder)
# therMonobody (FN3 domain): SSSSVPQIASIASGPETITVKWYDTNASYYYITYWSSSSQKVTINVGSPISYTIKHLKPGVTYYIQIVPYYTIGPDEYYYIPSDIISATPSSS
# notes: loop-only library clone selected on ySUMO
# B12: SUMOMbS34 (designed binder)
# therMonobody (FN3 domain): SSSSVPQIASIASGPETITVKWYDTNASYYYIYYWSGPYYYKKVTITVGNVTSYTIKHLKPGVTYYIQIVPYHVHDWGYYYYPSDIISATPSSS
# notes: as for B1
# Tests used:
# [1] = biological target: T2, yeast small ubiquitin-like modifier (ySUMO) (yeast, UniProt Q12306 1-98 = SUMO, limits assumed); test: yeast surface display titration, KD column of the drawn table [b]
# T2 construct: Target protein of the library selection; Construct not described
# T2 sequence (Q12306 1-98 limits assumed): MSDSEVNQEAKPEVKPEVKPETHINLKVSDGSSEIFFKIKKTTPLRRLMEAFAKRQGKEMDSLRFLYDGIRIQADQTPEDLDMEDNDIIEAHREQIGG
# Abl SH2 [2] = biological target: T1, Abl SH2; test: yeast surface display titration, KD column of the drawn table [a]
# Abl SH2 [3] = biological target: T1, Abl SH2; test: yeast surface display: therMonobody on yeast, soluble target titrated 0-1000 nM, mean fluorescence, fit of the 1:1 binding model
# Source text: (§1) FIG. 6A-C. therMonobody library designs and generated clones. Amino acid sequences of therMonobodies generated from the loop-only library (a) and the side-and-loop library (b). The locations of diversified residues in the libraries are shown as spheres on the STOTEMP4 structure. “X” denotes a mixture of 30% Tyr, 13% Ser, 10% Gly, 5% Asp, 5% Leu, 5% Pro, 5% Trp and 2.5% each of all pther amino acids except for Cys and Met; “B”, a mixture of Ala, Ser, Thr, Asn, Asp and Tyr; “U”, a mixture of Ser, Thr, Asn and Tyr; “Z”, a mixture of Ala, Glu, Lys and Thr. (c) Binding measurements by yeast surface display of representative therMonobodies for each combination of library and target. The mean fluorescence intensities of yeast cells displaying therMonobodies are plotted as a function of the target concentration. The error indicated are the standard deviations from curve fitting of the 1:1 binding model.
# [4] = biological target: T3, maltose-binding protein (MBP) (UniProt P0AEX9 27-396 = MBP); test: yeast surface display titration, KD column of the drawn table [b]
# Abl SH2 [5] = biological target: T1, Abl SH2; test: as above
# [6] = biological target: T3, maltose-binding protein (MBP); test: yeast surface display titration, KD column of the drawn table [a]
# [7] = biological target: T3, maltose-binding protein (MBP); test: yeast surface display: therMonobody on yeast, soluble target titrated 0-1000 nM, mean fluorescence, fit of the 1:1 binding model
# Source text: as §1
# [8] = biological target: T2, yeast small ubiquitin-like modifier …; test: yeast surface display titration, KD column of the drawn table [a]
# [9] = biological target: T2, yeast small ubiquitin-like modifier …; test: yeast surface display: therMonobody on yeast, soluble target titrated 0-2000 nM, mean fluorescence, fit of the 1:1 binding model
# Source text: as §1
binder,measurement,setting,value
B1,Kd,[1],65 nM
B2,Kd,Abl SH2 [2],78 nM
same,Kd,Abl SH2 [3],78 nM
B3,Kd,[4],484 nM
B4,Kd,Abl SH2 [5],13 nM
same,Kd,Abl SH2 [3],13 nM
B5,Kd,Abl SH2 [5],827 nM
B6,Kd,[6],12 nM
same,Kd,[7],12 nM
B7,Kd,[4],9 nM
same,Kd,[7],9 nM
B8,Kd,[1],95 nM
B9,Kd,[4],33 nM
B10,Kd,[6],41 nM
B11,Kd,[8],44 nM
same,Kd,[9],44 nM
B12,Kd,[1],20 nM
same,Kd,[9],20 nM

# Source: patent US20210079063A1 (UNIVERSITY OF CHICAGO, published 2021)
